System: MS2 coat protein
Experiment: apparent KD of MS2 coat protein; designed switch direction (-1 OFF switch, 1 ON switch): -1; higher = weaker reporter binding
How it was run: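 Designed RNA switches with common flanks were made on Illumina chips by stalled E. coli RNA polymerase. Titration with SNAP-549-labelled MS2 coat protein doubled from 0.7 or 1.5 nM up to 3 µM. Apparent KD is each design's median over clusters after curve-fitting normalised fluorescence.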

[1] = input ligand: microRNA oligo, concentration not stated
[2] = Eterna round: R95, input ligand: FMN 200 uM
[3] = Eterna round: R95, input ligand: microRNA oligo, concentration not stated
[4] = Eterna round: R95, input ligand: none

In the case of “AAGAAACAUGAGGAUCACCCAUGUGAGGAUAUGGCCCGCCCGGCGUGAGCUGGUUUUGUCAGAAGGCGCAAAGG [salish99_ex1_r4_018] (Eterna round: R97, puzzle: Exclusion 1)”, the “apparent KD of MS2 coat protein” value (input ligand: FMN 200 uM) is reported as 53.9 nM and the “apparent KD of MS2 coat protein” value (input ligand: none) is reported as 50.8 nM.
In the case of “UUUUCAUAUGAAGGAUAUACUUAACAUGAGGAUCACCCAUGUGGUGUUGUGAGUGAGUGAGUUUAGUAGAAGGUCAAUUCUUUU [JMF's solution 90] (Eterna round: R96, puzzle: Exclusion NG 2)”, the “apparent KD of MS2 coat protein” value (input ligand: FMN 200 uM) is reported as 613 nM, the “apparent KD of MS2 coat protein” value [1] is reported as 277 nM and the “apparent KD of MS2 coat protein” value (input ligand: none) is reported as 351 nM.
With “AGUUGGCGAGGAUAUACAUGAGGAUCACCCAUGUGGGAGAUACUAGUGAGGUCGAUUAGUAGAAGGCGCUGACA [Mat X3R4 m8] (Eterna round: R97, puzzle: Exclusion 3)” the “apparent KD of MS2 coat protein” value (input ligand: FMN 200 uM) was 566 nM and the “apparent KD of MS2 coat protein” value (input ligand: none) was 209 nM.
“ACGUGAUAUCUGUCGGUGGACAUGAGGAUCACCCAUGUAAGCUUUUCGCUCGUCUUAUAACCCGGUGACAGACCUUC [Edraatis] (puzzle: Sensor v3, turn-off variant 1)” was tested, and the “apparent KD of MS2 coat protein” value [2] was 33.7 nM, the “apparent KD of MS2 coat protein” value [3] was 417 nM and the “apparent KD of MS2 coat protein” value [4] was 48 nM.
In the case of “ACAUGAGGAUCACCCAUGUCCGGCUGGUCCGUCUCGGCUGUCGAGGAUAUGGCUCGGUGUCCGCGCUAGAAGGUGGGAGCCGGU [Aenatbe mod 74] (Eterna round: R96, puzzle: Exclusion NG 3)”, the “apparent KD of MS2 coat protein” value (input ligand: FMN 200 uM) is reported as 100 nM, the “apparent KD of MS2 coat protein” value [1] is reported as 54 nM and the “apparent KD of MS2 coat protein” value (input ligand: none) is reported as 103 nM.
“UUUGUUUAUGUGAGGAUAUACUGUUUGUUUUGUUUGUAGAAGGUACAUGAGGAUCACCCAUGUUUUGUUUUUUU [JR_BME4_Sub033] (puzzle: Brourd's mod of Exclusion 4)” was tested, and the “apparent KD of MS2 coat protein” value [3] was 21 nM.
For “ACAAGCUUUUUGCUCGUUUACAUGAGGAUCACCCAUGUGUCUUCACGCCCGGGCCCGGGCAAGCCCGGGCCCGGGCG [-47, -77, A 16%] (Eterna round: R97, puzzle: Sensor, turn-off variant 1)”, the “apparent KD of MS2 coat protein” value (input ligand: FMN 200 uM) was 45.6 nM and the “apparent KD of MS2 coat protein” value (input ligand: none) was 45 nM.
With “UGUGUGAGACAGGAUAUGCCGGAUGAAUUGCAGGUAGAAGGGUCUACAUGAGGAUCACCCAUGUGGCCGGUUGG [Ex6 #76] (Eterna round: R97, puzzle: Exclusion 6)” the “apparent KD of MS2 coat protein” value (input ligand: FMN 200 uM) was 19.8 nM and the “apparent KD of MS2 coat protein” value (input ligand: none) was 13.6 nM.
With “GAAAAGUGAGGAUAUGGUAAAAGAAAAAGAAAAAGAAAACUCCAGAAGGCACAUGAGGAUCACCCAUGUAAAAG [salish99_ex4_r3_005] (puzzle: Exclusion 4)” the “apparent KD of MS2 coat protein” value [2] was 26.9 nM, the “apparent KD of MS2 coat protein” value [3] was 19.4 nM and the “apparent KD of MS2 coat protein” value [4] was 23.6 nM.
“UCGCCGCCCUUGGGCGGCGACAUGAGGAUCACCCAUGUCAAGCUUUUUGCUCGUUUUAUUGCCGGCCUUGGCCGGCU [Olib_2] (Eterna round: R97, puzzle: Sensor, turn-off variant 1)” was tested, and the “apparent KD of MS2 coat protein” value (input ligand: FMN 200 uM) was 28.3 nM and the “apparent KD of MS2 coat protein” value (input ligand: none) was 33.2 nM.
“CCUCAGUAAGGAUAUCAGCUUAUAGAGUUGGUAAUGAGAGCUGAGAAGGUACAUGAGGAUCACCCAUGUUAGUU [JL Zatite mod 3] (puzzle: Exclusion 4)” was tested, and the “apparent KD of MS2 coat protein” value [3] was 23.5 nM.
In the case of “GAUUGACAUGAGGAUCACCCAUGUGAGGAUAUCGGCCGGACCGUGUUAGCUUCCGUCGCGAGAAGGCGCAUAGG [Exclusion 1 V38] (puzzle: Exclusion 1)”, the “apparent KD of MS2 coat protein” value [2] is reported as 42.3 nM, the “apparent KD of MS2 coat protein” value [3] is reported as 42.8 nM and the “apparent KD of MS2 coat protein” value [4] is reported as 36.7 nM.
“GGGAAGAACCAACAAGUAGACAUGAGGAUCACCCAUGUAGACUUCAUGUGCACGCAAAGCGUGCAAGCUCGUCUUAU [AK-miRNA-r3-14.4] (Eterna round: R97, puzzle: Sensor, turn-off variant 1)” was tested, and the “apparent KD of MS2 coat protein” value (input ligand: FMN 200 uM) was 22.9 nM and the “apparent KD of MS2 coat protein” value (input ligand: none) was 19.8 nM.
With “GAUGCCAGAGGAUAUGCAUCGGGUUCCUGGUUAAGGCUGCCACAUGAGGAUCACCCAUGUAGAAGGCUGCCGUC [EX2 B.5] (Eterna round: R97, puzzle: Exclusion 2)” the “apparent KD of MS2 coat protein” value (input ligand: FMN 200 uM) was 17.4 nM and the “apparent KD of MS2 coat protein” value (input ligand: none) was 9.94 nM.
With “AGAUGCUCAAGUCGACAUGAGGAUCACCCAUGUACAGUUAAUGAGGAUAUCCGAGAUAAAUAAUAGGAGAAGGCGUGAACAUGA [Ex NG3 #8] (Eterna round: R96, puzzle: Exclusion NG 3)” the “apparent KD of MS2 coat protein” value (input ligand: FMN 200 uM) was 72.4 nM, the “apparent KD of MS2 coat protein” value [1] was 50.6 nM and the “apparent KD of MS2 coat protein” value (input ligand: none) was 94.1 nM.
For “CAGGUGUUAGGAUAUCGGAGAUCGAGACCGACGGGAUGAGCCGAGAAGGAACAUGAGGAUCACCCAUGUAGGUG [JR_Exclu4_Sub034] (puzzle: Exclusion 4)”, the “apparent KD of MS2 coat protein” value [2] was 166 nM, the “apparent KD of MS2 coat protein” value [3] was 400 nM and the “apparent KD of MS2 coat protein” value [4] was 414 nM.
In the case of “UAAGAUUACCGAGGAUAUGGUAAUUUUUGUUAACCAGAAGGCGGACUCAACAUGAGGAUCACCCAUGUAUAAAGGGUAUUAGUU [JR_ExcNG1_Sub040] (Eterna round: R96, puzzle: Exclusion NG 1)”, the “apparent KD of MS2 coat protein” value (input ligand: FMN 200 uM) is reported as 100 nM, the “apparent KD of MS2 coat protein” value [1] is reported as 74.2 nM and the “apparent KD of MS2 coat protein” value (input ligand: none) is reported as 96.4 nM.
“GACUAGGCAGGAUAUACAUGAGGAUCACCCAUGUGUCUGCGUUAAGCACGUGAAGACGGUAGAAGGGCCUACAC [ChP 13.04.2015 #18] (puzzle: Exclusion 3)” was tested, and the “apparent KD of MS2 coat protein” value [3] was 13 nM.
With “AUGGGUCCUCACGGAGCUACAUGAGGAUCACCCAUGUGGAUUGAGGAUAUCGUAACCCGACGGGACGAGAAGGCAGUUUACUGU [Ex NG3 #98] (Eterna round: R96, puzzle: Exclusion NG 3)” the “apparent KD of MS2 coat protein” value (input ligand: FMN 200 uM) was 63.1 nM, the “apparent KD of MS2 coat protein” value [1] was 23 nM and the “apparent KD of MS2 coat protein” value (input ligand: none) was 29.4 nM.
For “UAUUAGCAAGCAUGAUCCCACAUGAGGAUCACCCAUGUGCUCGUCUUAUAAGGUACUGUGACGAAAGUCACGGUACC [Sensor 3, v1 - 97] (puzzle: Sensor v3, turn-off variant 1)”, the “apparent KD of MS2 coat protein” value [2] was 195 nM, the “apparent KD of MS2 coat protein” value [3] was 89.4 nM and the “apparent KD of MS2 coat protein” value [4] was 218 nM.
In the case of “AGUUGUGUCAAGGAUAUGCAGUCUAACGACGGAGCAGAAGGUGACACUUGAGGAUCACCCAAGUGAACCAAAAU [Bisoreis] (Eterna round: R97, puzzle: Exclusion 6)”, the “apparent KD of MS2 coat protein” value (input ligand: FMN 200 uM) is reported as 393 nM and the “apparent KD of MS2 coat protein” value (input ligand: none) is reported as 57.5 nM.
“GCACGGUAAGUGAGGAUAUACCUCUGGAUACAGAGGUAGAAGGCACAUGAGGAUCACCCAUGUCUCAGCCGUGC [Fiskers BMX 4 - 87] (puzzle: Brourd's mod of Exclusion 4)” was tested, and the “apparent KD of MS2 coat protein” value [3] was 16.8 nM.
For “GCACGGAGUGUAGGAUAUCUGUGCGAUUAGCUCAGAGAAGGACACAUGAGGAUCACCCAUGUGUUCCACGGAAACGUUCCGUGC [Eli exng1 - 049] (Eterna round: R96, puzzle: Exclusion NG 1)”, the “apparent KD of MS2 coat protein” value (input ligand: FMN 200 uM) was 8.96 nM, the “apparent KD of MS2 coat protein” value [1] was 7.93 nM and the “apparent KD of MS2 coat protein” value (input ligand: none) was 11.9 nM.
“AUUAUAUAGACAGGAUAUAGAAUAUUAUUUUAACAUGAGGAUCACCCAUGUAACCUUAUGUGUAGCUAGAAGGGUCAUUUAUUA [Title] (Eterna round: R96, puzzle: Exclusion NG 2)” was tested, and the “apparent KD of MS2 coat protein” value [1] was 77.4 nM.
For “UGAUCUAGCGGAGGAUAUACAUGAGGAUCACCCAUGUAGUAGUCUGUACCGUAGUGCAGACUUGUGUAGAAGGCCGCUAGAUCU [JL ENG2 3.61] (Eterna round: R96, puzzle: Exclusion NG 2)”, the “apparent KD of MS2 coat protein” value (input ligand: FMN 200 uM) was 15.8 nM, the “apparent KD of MS2 coat protein” value [1] was 10.8 nM and the “apparent KD of MS2 coat protein” value (input ligand: none) was 14.1 nM.
“CCGAUAAUGUAGGAUAUCGUAUCGGAAACGAUACGAGAAGGACAAACAUGAGGAUCACCCAUGUUCCUUAACGG [Mat - Exclusion 6 - Eli Mod - D73] (puzzle: Exclusion 6)” was tested, and the “apparent KD of MS2 coat protein” value [3] was 15 nM.
